Reference: publication doi:10.1101/2022.07.22.501112 (2022)
Numbered stars: 1 amine (or outer) side, 2 acyl side, 3 side chain; on linkers, the order of the positions; unused ones are H or OH. Square brackets hold non-standard residues; d marks the D form. Ends that are not written are not given here. Lys(Me3) = C[N+](C)(C)CCCC[C@H](N)C(=O)O; Ethylenediamine = C(CN[*:2])N[*:1]; 5‑FAM = fluorescent label

Target: T1, E. coli expressed BAHD1(aa:588-780) (UniProt Q8TBE0 588-780)
T1 chain: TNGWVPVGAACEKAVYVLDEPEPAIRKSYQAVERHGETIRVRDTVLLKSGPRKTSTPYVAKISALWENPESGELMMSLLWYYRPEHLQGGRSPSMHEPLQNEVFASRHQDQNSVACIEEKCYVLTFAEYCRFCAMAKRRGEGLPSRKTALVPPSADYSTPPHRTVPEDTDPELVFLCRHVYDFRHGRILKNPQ
Assay: FP

Kd: 700 nM
Binder: PRKQLATKAAR[Lys(Me3)]SAPATGG-{Ethylenediamine-4‑Abu-5‑FAM} [H3 16-35 K27me3 peptide]
